Reference: patent publication US20240010733A1

Target: soluble CLEC2D antigen, ecto-domain (Q72-V191, H176C) with C-term Histidine tag (human) (UniProt Q9UHP7)
Experiment: flow cytometry on CLEC2D-coated magnetic beads

UniProt Q9UHP7, sequence (Q9UHP7 72-191 H176C limits assumed): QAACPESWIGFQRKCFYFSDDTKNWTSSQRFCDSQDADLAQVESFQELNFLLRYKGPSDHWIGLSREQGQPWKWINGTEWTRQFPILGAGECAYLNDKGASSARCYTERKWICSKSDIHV

## commercial P4500/anti-CLEC2D antibody
  efficiency of conjugation (antigen-coated beads stained by the antibody): > 90%
